In patent publication US20200157194A1 (Regeneron, published 2020):
Several values for one entry are separate records, joined by “and”; a condition that tells them apart may be missing. Equal entries are not always repeated. Where two headings read alike, the source gives them in different places.

B7: recombinant human GREM1 (hGREM1-His; C-terminal 10His tagged, R&D, #5190-GR) (ligand)
chain: KKKGSQGAIPPPDKAQHNDSEQTQSPQQPGSRNRGRGQGRGTAMPGEEVLESSQEALHVTERKYLKRDWCKTQPLKQTIHEEGCNSRTIINRFCYGQCNSFYIPRHIRKEEGSFQSCSFCKPKKFTTMMVTLNCPELQPPTKKKRVTRVKQCRCISIDLDHHHHHHHHHH

Assays:
[1] = target: B7; experiment: cell-based or functional assay
[2] = target: T1, human GREM1 (hGREM1-His; SEQ ID NO: 595) (human, UniProt O60565 25-184); experiment: SPR, Biacore T200, 25 C, mAb captured, hGREM1-His injected;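 further: Heparin-supplemented HBS-EP+ used as running buffer, association and dissociation phases followed, Kd computed as koff divided by kon and half-life derived from koff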
T1 construct: also called biotin-hGREM1-His; recombinant human GREM1 protein
T1 sequence: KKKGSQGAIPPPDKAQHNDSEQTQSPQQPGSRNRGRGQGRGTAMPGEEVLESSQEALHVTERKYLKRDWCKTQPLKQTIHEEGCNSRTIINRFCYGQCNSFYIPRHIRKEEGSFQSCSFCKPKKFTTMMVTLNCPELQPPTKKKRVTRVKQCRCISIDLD

[3] = target: recombinant human BMP4 (hBMP4; R&D, #314-BP/CF) (human); experiment: cell-based or functional assay
[4] = target: recombinant human BMP4 (hBMP4; R&D, #314-BP/CF) (human); experiment: cell-based or functional assay; remark: listed apart in the source
[5] = target: recombinant human BMP4 (hBMP4; R&D, #314-BP/CF) (human); experiment: cell-based or functional assay; remark: listed apart in the source

Sequence of recombinant human BMP4 (hBMP4; R&D, #314-BP/CF) (human) (P12644 293-408): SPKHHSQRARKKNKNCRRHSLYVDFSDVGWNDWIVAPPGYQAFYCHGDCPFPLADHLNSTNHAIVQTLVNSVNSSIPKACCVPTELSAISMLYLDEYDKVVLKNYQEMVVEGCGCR

B1: H3M2929N (antibody, V domains shown)
VH: QVQLVESGGGVVQPGRSLRLSCAASGFIFSSYGMHWVRQAPGKGLEWVAVIWNDGSNKYSADSVKGRFTVSRDNSKNTLYLQMNSLKAEDTAVYYCARDGEWEVFDYWGQGTLVTVSS
VL: DIVMTQSPVTLSASPGERATLSCRASQSVRSNLAWYQEKPGQAPRLLIYGASTRATGIPARFSGSGSGTEFTLTISSLQSEDFAVYYCQQYNDWPPWTFGQGTKVEIK
notes: H3M prefix marks the Fc (chimeric, mouse constant domains)
In the case of B1, the “IC50 [M], inhibition of hGREM1-His, W-20-17/BRE-luc luciferase (100 pM hBMP4, 10 nM hGREM1-His)” value [1] is reported as 2.2e-09 M, the Kd [2] is reported as 29 nM and the koff [2] is reported as 0.00362 s⁻¹. The kon [2] was 125000 M⁻¹ s⁻¹ and the t1/2 [2] was 3 min.

B2: H3M2788N (antibody, V domains shown)
VH: QVQLVESGGGVVQPGRSLRLSCAASGFTFSSHGMHWVRQAPGKGLEWVAVIWYDGSNKYHADSVKGRFTIYRDNSKNTLDLQMNSLRVEDTAMYYCAREDSNNEDLDYWGQGTLVTVSS
VL: DIQMTQSPSSLSASVGDRVTITCRASQGIRNDLGWFQQKPGKAPKRLIYVASNLQSGVPSRFSGSGSGTEFTLTISSLQPEDFATYYCLQHSNYPPWTFGQGTKVEIK
notes: as for B1
For B2, the “IC50 [M], inhibition of hGREM1-His, W-20-17/BRE-luc luciferase (200 pM hBMP4, 20 nM hGREM1-His)” value [1] was 2.5e-08 M, the Kd [2] was 4.2 nM and the koff [2] was 0.00035 s⁻¹. It also gave a kon [2] of 80000 M⁻¹ s⁻¹ and a t1/2 [2] of 33 min.

B3: H2aM2899N (antibody, mouse IgG2, V domains shown)
VH: QVQLVQSGAEVKKPGASVKVSCKASGFTFTSYDINWVRQATGQGLEWMGWMNPKSGNTDYAQKFLGRVTLTRNTSKSTAYMELSSLRSEDTAVYYCARGKQLVFDYWGQGTLVTVSA
VL: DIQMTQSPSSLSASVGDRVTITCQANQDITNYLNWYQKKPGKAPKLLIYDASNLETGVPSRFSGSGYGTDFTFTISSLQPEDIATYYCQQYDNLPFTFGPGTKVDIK
notes: H2M prefix = mouse IgG2 Fc (here H2aM); also called H2M2899N
For B3, the “IC50 [M], inhibition of hGREM1-His, W-20-17/BRE-luc luciferase (100 pM hBMP4, 10 nM hGREM1-His)” value [1] was 2.1e-09 M, the Kd [2] was 270 nM and the koff [2] was 0.002 s⁻¹. The kon [2] was 8000 M⁻¹ s⁻¹ and the t1/2 [2] was 5.8 min.

B4: H2bM2786N (antibody, mouse IgG2, V domains shown)
VH: EVHLLESGGGLVQPGGSLRLSCAASGFTFSSYVMNWVRQAPGKGLEWVSAISGSGGSTYYGDSVKGRSTISRDNSKNTLYLQMKSLRAEDTAVYYCAKGDIAPIVFDAFDIWGQGTMVTVSS
VL: DIQMTQSPSSLSASVGDRVTITCQASQDISNCLNWYQHKPGKAPKLLIYDASYLETGVPSRFSGSGSGTDFTFTISSLQPEDIATYYCQQYDNLPYTFGQGTKLEIK
notes: H2M prefix = mouse IgG2 Fc (here H2bM); also called H2M2786N
In the case of B4, the “IC50 [M], inhibition of hGREM1-His, W-20-17/BRE-luc luciferase (200 pM hBMP4, 20 nM hGREM1-His)” value [1] is reported as 1.9e-08 M, the Kd [2] is reported as 33 nM and the koff [2] is reported as 0.006 s⁻¹. For the same binder, the kon [2] was 180000 M⁻¹ s⁻¹ and the t1/2 [2] was 1.9 min.

B5: H2aM2901N (antibody, mouse IgG2, V domains shown)
VH: EVQLVESGGGLVKPGGSLRLSCAASGFTFSYYSMIWVRQAPGKGLEWVSSISSSSSYIYYADSVKGRFTISRDNAKKSMYLQMNSLRAEDTAVYYCARGSGYPDYWGQGTLVTVSS
VL: DIQMTQSPSSLSASVGDRVTITCRASQGINNYLAWYQQKPGKVPKLLIYAASTLRSGVPSRFSGSGSGTDFTLTISSLQPEDVATYYCQKYNSAPFTFGPGTKVDIK
notes: H2M prefix = mouse IgG2 Fc (here H2aM); also called H2M2901N
B5 was tested, and the “IC50 [M], inhibition of hGREM1-His, W-20-17/BRE-luc luciferase (100 pM hBMP4, 10 nM hGREM1-His)” value [1] was 1.7e-09 M, the Kd [2] was 8.8 nM and the koff [2] was 0.00145 s⁻¹. For the same binder, the kon [2] was 164000 M⁻¹ s⁻¹ and the t1/2 [2] was 8 min.

B6: H2bM2782N (antibody, mouse IgG2, V domains shown)
VH: EVQLVESGGGLVQPGGSLRLSCAASGFTFSSYSMNWVRQAPGKGLEWVSSISSSSNYINYADSIKGRFTISRDNAKNSLYLQMNSLRAEDTAVYYCARVNWDYPFDCWGRGTLVTVSS
VL: DIQMTQSPSSLSASVGDRVTITCRASQDIRHYLVWYQQKPGKVPKLLIYAASTLQSGVPSRFSGSGSGTDFILTISSLQPEDVATYYCQKYNSAPFTFGPGTKVDIK
notes: H2M prefix = mouse IgG2 Fc (here H2bM); also called H2M2782N
B6 was tested, and the “IC50 [M], inhibition of hGREM1-His, W-20-17/BRE-luc luciferase (200 pM hBMP4, 20 nM hGREM1-His)” value [1] was 3.5e-09 M, the Kd [2] was 15.3 nM and the koff [2] was 0.00189 s⁻¹. It also gave a kon [2] of 123000 M⁻¹ s⁻¹ and a t1/2 [2] of 6.1 min.

With B7 the “hGrem1-His IC50 (nM), inhibition of 100 pM hBMP4, W-20-17/BRE-luc luciferase” value [3] was 6 nM and 4.3 nM and 4.2 nM and 5.4 nM, the “hGrem1-His IC50 (nM), inhibition of 200 pM hBMP4, W-20-17/BRE-luc luciferase” value [3] was 10.3 nM and the “hGREM1-His, IC50 (M); W-20-17 cell differentiation assay (alkaline phosphatase)” value [4] was 4.4e-09 M. For the same binder, the “hGrem1-His IC50 (nM), inhibition of 100 pM hBMP4, W-20-17/BRE-luc luciferase” value [5] was 2.9 nM.

B8: H1M2907N (antibody, V domains shown)
VH: QVQLVESGGGVVQPGRSLRLSCAASGFTFSSYGMHWVRQAPGKGLEWVAIIWNDGSNKYYVDSVKGRFTISRANSKNTLYLQMNSLRAEDTAVYYCARDGLEPDAFDIWGQGTMVTVSS
VL: EIVLTQSPATLSLSPGERATLSCRASQSVSSFLAWYQQKPGQAPRLLIYDASNRATGIPARFSGSGSGTDFTLTISSLEPEDFAVYYCQQRSNWPPYTFGQGTKLEIK
notes: H1M prefix marks the Fc (chimeric, mouse constant domains)
For B8, the “IC50 [M], inhibition of hGREM1-His, W-20-17/BRE-luc luciferase (100 pM hBMP4, 10 nM hGREM1-His)” value [1] was 1.8e-09 M, the Kd [2] was 45.3 nM and the koff [2] was 0.00281 s⁻¹. For the same binder, the kon [2] was 62000 M⁻¹ s⁻¹ and the t1/2 [2] was 4.1 min.
